# Molecular target: hic1_human HIC1 (UniProt Q14526)
# Sequence (Q14526 whole entry): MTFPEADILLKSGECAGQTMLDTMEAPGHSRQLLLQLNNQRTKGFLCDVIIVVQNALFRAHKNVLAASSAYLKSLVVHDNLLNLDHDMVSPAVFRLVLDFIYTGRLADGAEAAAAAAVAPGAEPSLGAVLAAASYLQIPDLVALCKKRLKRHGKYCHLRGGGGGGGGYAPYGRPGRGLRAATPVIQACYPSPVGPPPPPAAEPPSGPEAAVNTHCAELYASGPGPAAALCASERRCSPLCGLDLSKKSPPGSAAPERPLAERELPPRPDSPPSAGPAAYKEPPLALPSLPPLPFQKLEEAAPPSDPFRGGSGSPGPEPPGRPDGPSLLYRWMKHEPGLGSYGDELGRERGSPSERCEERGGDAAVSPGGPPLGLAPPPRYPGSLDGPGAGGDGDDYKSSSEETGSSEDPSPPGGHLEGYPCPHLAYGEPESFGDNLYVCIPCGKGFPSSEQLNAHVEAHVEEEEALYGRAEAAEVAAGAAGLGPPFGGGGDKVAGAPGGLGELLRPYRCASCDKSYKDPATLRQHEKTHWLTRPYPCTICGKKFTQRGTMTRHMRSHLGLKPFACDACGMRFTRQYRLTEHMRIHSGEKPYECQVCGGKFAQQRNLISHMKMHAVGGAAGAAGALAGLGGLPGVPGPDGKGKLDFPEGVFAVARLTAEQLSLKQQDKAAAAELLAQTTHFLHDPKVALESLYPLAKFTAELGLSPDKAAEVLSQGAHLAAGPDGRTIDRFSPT
# Sequence of C-terminal-binding protein 2 (Mus musculus), P56546 A58E (P56546 whole entry A58E): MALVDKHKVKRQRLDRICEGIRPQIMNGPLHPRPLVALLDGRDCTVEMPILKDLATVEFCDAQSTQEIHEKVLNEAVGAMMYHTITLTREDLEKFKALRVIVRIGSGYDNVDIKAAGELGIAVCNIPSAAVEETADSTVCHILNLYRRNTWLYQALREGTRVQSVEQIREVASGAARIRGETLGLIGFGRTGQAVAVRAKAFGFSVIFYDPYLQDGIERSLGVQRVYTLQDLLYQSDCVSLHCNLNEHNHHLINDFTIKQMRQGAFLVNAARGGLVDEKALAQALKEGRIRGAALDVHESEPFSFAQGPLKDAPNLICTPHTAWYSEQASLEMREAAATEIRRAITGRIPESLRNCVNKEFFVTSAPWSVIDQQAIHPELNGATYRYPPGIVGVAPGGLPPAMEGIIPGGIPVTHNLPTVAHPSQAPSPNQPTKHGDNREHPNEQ
# Sequence of C-terminal-binding protein 2 (Mus musculus), P56546 V72R (P56546 whole entry V72R): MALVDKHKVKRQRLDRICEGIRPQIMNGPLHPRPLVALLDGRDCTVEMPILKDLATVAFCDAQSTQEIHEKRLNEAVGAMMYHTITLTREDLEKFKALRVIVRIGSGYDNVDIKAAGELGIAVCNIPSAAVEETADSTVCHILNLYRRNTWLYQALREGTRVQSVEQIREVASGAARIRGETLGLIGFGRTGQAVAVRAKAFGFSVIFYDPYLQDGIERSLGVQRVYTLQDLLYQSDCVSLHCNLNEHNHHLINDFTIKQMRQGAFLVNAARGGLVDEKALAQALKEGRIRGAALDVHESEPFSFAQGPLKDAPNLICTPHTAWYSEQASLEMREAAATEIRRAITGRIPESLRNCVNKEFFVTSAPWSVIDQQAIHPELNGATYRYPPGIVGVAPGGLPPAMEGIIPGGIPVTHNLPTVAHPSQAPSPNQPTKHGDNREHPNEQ
row,effect of a mutation on the interaction,Substance
1,disrupting interaction,"C-terminal-binding protein 2 (Mus musculus), P56546 A58E"
2,disrupting interaction,"C-terminal-binding protein 2 (Mus musculus), P56546 V72R"
